In the assay the target is soluble head domain of CDV-H (canine distemper virus hemagglutinin), Kyoto Biken vaccine strain, mad (canine distemper virus (Kyoto Biken vaccine strain)). Description: SEC + other: non-reducing SDS-PAGE.

Consider “soluble head domain of CDV-H (canine distemper virus hemagglutinin), Kyoto Biken vaccine strain, mad (domain or fragment)”, for which the stoichiometry N was found to be 2.

What is called stoichiometry N is a count of units in the complex or per binding partner.

Source of the values: paper PMC11268888.
